Data as given in US20260109763A1, “ANTI-PILRA ANTIBODIES, USES THEREOF, AND RELATED METHODS AND REAGENTS” (DENALI THERAPEUTICS INC., priority 2021, published 2026).

Key:
[1] = biological target: human PILRA R78 on cells (human) (UniProt Q9UKJ1); assay: target engagement in brain lysate of human PILRA (R78) BACtg mice, 1 day after dosing; MSD assay, bound versus total PILRA
[2] = biological target: human PILRA R78 on cells (human) (UniProt Q9UKJ1); assay: target engagement in brain lysate of human PILRA (R78) BACtg mice, 4 days after dosing; MSD assay, bound versus total PILRA

human PILRA R78 on cells (human), sequence (Q9UKJ1 20-303 limits assumed): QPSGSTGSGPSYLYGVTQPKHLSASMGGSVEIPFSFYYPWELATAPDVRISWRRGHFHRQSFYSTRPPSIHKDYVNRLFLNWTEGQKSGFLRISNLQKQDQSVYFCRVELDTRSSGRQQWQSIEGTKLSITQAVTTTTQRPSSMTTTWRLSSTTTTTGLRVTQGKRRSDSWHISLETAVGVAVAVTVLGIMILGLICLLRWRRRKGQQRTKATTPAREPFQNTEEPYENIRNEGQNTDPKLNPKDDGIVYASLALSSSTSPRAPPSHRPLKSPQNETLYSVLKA

percent of brain human PILRA bound, 1 day [1]: 17%
percent of brain human PILRA bound, 4 days [2]: 16%
Substance: isotype control antibody
